Results taken from US20260151494A1 (ARO BIOTHERAPEUTICS, published 2026).
Residue numbers refer to the chain shown, from its start.

B1: CD71-binding FN3 domain of SEQ ID NO: 465 (designed binder)
chain: MLPAPKNLVVSRVTEDSARLSWTAPDAAFDSFFIGYLEPQPPGEAIDLYVPGSERSYDLTGLKPGTEYNVTIQGVKGGFPSEPLWADFTT
notes: Tencon-based FN3 domain
B2: CD71-binding FN3 domain of SEQ ID NO: 496 (designed binder)
chain: B1 chain with D47I, Y49W, E82V, W85I, D87Q
notes: Tencon-based FN3 domain
B3: CD71-binding FN3 domain of SEQ ID NO: 483 (designed binder)
chain: B1 chain with D47T, Y49V, E82D, W85V, D87S
notes: Tencon-based FN3 domain
B4: CD71-binding FN3 domain of SEQ ID NO: 529 (designed binder)
chain: B1 chain with E82L, W85Q, D87H
notes: Tencon-based FN3 domain
B5: CD71-binding FN3 domain of SEQ ID NO: 473 (designed binder)
chain: B1 chain with Y49W, E82L, W85S, D87S
notes: Tencon-based FN3 domain
B6: CD71-binding FN3 domain of SEQ ID NO: 476 (designed binder)
chain: B1 chain with D47H, Y49Q, E82I, W85I, D87V
notes: Tencon-based FN3 domain
B7: CD71-binding FN3 domain of SEQ ID NO: 508 (designed binder)
chain: B1 chain with D47T, Y49S, W85I, D87I
notes: Tencon-based FN3 domain
B8: CD71-binding FN3 domain of SEQ ID NO: 478 (designed binder)
chain: B1 chain with D47H, E82V, W85I, D87K
notes: Tencon-based FN3 domain
B9: CD71-binding FN3 domain of SEQ ID NO: 516 (designed binder)
chain: B1 chain with D47S, Y49W, E82S, W85V, D87Y
notes: Tencon-based FN3 domain
B10: CD71-binding FN3 domain of SEQ ID NO: 334 (designed binder)
chain: MSLPAPKNLVVSRVTEDSARLSWTAPDAAFDSFEIAYQELSLWGEAIVLTVPGSERSYDLTGLKPGTEYWVQIGGVKGGIWSSPLVASFTT
notes: not shown: C-terminal poly-histidine tag added to each FN3 domain
B11: CD71-binding FN3 domain of SEQ ID NO: 335 (designed binder)
chain: MSLPAPKNLVVSRVTEDSARLSWTAPDAAFDSFFIGYLEPQPPGEAIDLYVPGSERSYDLTGLKPGTEYNVTIQGVKGGFPSLPLVATFTT
notes: as for B10
B12: CD71-binding FN3 domain of SEQ ID NO: 342 (designed binder)
chain: B11 chain with D48V, Y50T, L83E, V86I, T88N
notes: as for B10
B13: CD71-binding FN3 domain of SEQ ID NO: 343 (designed binder)
chain: B11 chain with D48A, Y50W, L83E
notes: as for B10
B14: CD71-binding FN3 domain of SEQ ID NO: 341 (designed binder)
chain: B11 chain with D48E, T88I
notes: as for B10
B15: CD71-binding FN3 domain of SEQ ID NO: 337 (designed binder)
chain: B11 chain with D48H, L83I, V86I, T88S
notes: as for B10

Target: T1, cynomolgus monkey CD71 extracellular domain (CD71-ECD) (cynomolgus monkey, UniProt H9EXL1 89-760 (rhesus entry))
T1 construct: extracellular domain; It was captured on a Neutravidin plate; also called cynomolgus CD71-ECD
Assay: capture ELISA, 20 nM antigen on Neutravidin plate, FN3 titrated 250 to 0.3 nM
Experimental: (§1) Select CD71-binding FN3 domains identified in Example 4 above were chosen to determine their binding to both human and cynomolgus monkey CD71 extracellular domain (CD71-ECD). Capture ELISA using CD71 binding to FN3 domains was performed, with the FN3 domains being titrated from 250 nM to 0.3 nM. 20 nM of antigen was incubated on a Neutravidin® plate for 1 hour at room temperature. The FN3 domains were incubated for 16 hours at room temperature.

T1 sequence (chain, as listed by the source): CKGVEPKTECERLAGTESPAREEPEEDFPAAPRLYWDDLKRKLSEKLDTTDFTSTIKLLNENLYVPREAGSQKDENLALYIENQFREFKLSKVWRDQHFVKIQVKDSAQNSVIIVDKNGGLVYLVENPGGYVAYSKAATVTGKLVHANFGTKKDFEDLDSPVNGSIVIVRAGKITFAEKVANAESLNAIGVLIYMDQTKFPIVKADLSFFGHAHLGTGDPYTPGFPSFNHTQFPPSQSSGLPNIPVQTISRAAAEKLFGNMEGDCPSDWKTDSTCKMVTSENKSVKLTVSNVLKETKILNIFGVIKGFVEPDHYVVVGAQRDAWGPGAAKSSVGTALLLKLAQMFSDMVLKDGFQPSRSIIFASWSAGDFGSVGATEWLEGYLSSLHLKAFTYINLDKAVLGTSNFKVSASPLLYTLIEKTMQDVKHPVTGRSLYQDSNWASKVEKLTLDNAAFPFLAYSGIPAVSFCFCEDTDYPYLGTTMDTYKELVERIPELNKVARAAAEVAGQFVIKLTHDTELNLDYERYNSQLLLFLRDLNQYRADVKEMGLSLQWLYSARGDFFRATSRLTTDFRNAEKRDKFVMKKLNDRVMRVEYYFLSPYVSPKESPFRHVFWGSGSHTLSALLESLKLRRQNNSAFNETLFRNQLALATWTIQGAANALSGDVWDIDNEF

Binder | EC50 [nM]
B1 | 24.9
B2 | 10.6
B3 | 23
B4 | 2.7
B5 | 34.9
B6 | 17.7
B7 | 14.2
B8 | 0.6
B9 | 10.6

Target: T2, human CD71 extracellular domain (CD71-ECD) (human, UniProt P02786 89-760)
T2 construct: It was captured on a Neutravidin plate; also called hCD71; transferrin receptor 1 ECD
Assay: as above
Experimental: as §1

T2 sequence (P02786 89-760): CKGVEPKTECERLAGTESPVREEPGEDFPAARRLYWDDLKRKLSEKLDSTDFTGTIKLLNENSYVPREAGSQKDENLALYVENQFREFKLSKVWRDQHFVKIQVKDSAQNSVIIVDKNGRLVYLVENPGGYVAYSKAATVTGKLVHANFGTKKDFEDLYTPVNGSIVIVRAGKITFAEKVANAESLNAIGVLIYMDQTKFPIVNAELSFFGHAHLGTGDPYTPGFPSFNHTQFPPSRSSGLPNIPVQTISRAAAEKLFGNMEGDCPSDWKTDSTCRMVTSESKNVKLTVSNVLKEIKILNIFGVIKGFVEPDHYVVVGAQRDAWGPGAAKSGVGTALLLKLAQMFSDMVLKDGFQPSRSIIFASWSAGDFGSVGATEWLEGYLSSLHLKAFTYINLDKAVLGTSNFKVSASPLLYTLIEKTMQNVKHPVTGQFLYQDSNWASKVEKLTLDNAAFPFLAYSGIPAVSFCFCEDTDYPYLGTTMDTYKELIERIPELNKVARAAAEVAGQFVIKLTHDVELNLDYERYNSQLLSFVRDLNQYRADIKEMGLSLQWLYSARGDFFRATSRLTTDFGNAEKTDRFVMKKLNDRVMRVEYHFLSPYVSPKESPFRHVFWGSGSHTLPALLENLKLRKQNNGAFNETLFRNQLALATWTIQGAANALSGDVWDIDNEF

Binder | EC50 [nM]
B1 | 2.5
B2 | 3.9
B3 | 14.1
B4 | 2.3
B5 | 4.3
B6 | 2.1
B7 | 5.5
B8 | 0.4
B9 | 2.2

Target: human CD71 on cells (SKBR3; SW620-rLuc-KRAS) (human, UniProt P02786 1-760)
Assay: cell-based or functional assay

Chain of human CD71 on cells (SKBR3; SW620-rLuc-KRAS) (P02786 whole entry): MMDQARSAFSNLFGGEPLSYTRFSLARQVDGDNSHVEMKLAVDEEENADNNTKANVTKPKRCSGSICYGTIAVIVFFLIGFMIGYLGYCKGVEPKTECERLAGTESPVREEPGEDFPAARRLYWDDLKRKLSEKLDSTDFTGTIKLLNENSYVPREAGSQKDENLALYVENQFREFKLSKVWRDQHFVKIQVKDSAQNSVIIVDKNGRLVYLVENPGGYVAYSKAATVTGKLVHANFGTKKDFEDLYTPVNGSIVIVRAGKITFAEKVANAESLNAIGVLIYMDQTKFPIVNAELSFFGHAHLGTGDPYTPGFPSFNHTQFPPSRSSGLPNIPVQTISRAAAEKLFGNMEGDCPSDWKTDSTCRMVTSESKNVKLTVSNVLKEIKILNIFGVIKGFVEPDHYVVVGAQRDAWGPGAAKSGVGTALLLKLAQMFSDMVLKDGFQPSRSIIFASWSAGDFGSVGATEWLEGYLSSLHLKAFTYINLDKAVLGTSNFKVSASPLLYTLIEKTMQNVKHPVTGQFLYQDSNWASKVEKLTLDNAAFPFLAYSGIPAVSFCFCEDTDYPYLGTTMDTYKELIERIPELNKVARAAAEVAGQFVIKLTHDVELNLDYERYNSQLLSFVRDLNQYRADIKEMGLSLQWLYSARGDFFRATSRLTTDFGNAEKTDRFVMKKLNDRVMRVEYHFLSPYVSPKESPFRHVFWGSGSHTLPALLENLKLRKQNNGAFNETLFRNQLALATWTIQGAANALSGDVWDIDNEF

Binder | CTG EC50 (CellTiter-Glo luminescent assay, SKBR3 cells, 72 h) [nM]
B1 | 1.2
B2 | 3
B3 | 9.8
B4 | 7
B5 | 12.6
B6 | 2.7
B7 | 1.5
B8 | 0.6
B9 | 8.4

Target: T3, apical domain of CD71 (Screen 3: 'cynomolgus apical domain of human CD71') (cynomolgus (as 'cynomolgus apical …))
T3 construct: domain: apical domain; Species is told ambiguously
Assay: primary ELISA screen, RLU on apical domain over RLU on HSA

Binder | Apical domain:HSA [ratio]
B10 | 378
B11 | 103
B12 | 13
B13 | 178
B14 | 92
B15 | 385

Target: T4, human CD71 extracellular domain (human, UniProt P02786 89-760)
T4 construct: also called hCD71; human CD71-ECD
Assay: primary ELISA screen, RLU on human CD71-ECD over RLU on HSA

T4 sequence (P02786 89-760): as the sequence (P02786 89-760) above

Binder | hCD71:HSA [ratio]
B10 | 188
B11 | 93
B12 | 10
B13 | 172
B14 | 92
B15 | 307

Target: T4, human CD71 extracellular domain
Assay: primary ELISA screen, human CD71-ECD

Binder | RLU [RLU]
B10 | 2.7e+06
B11 | 5.34e+06
B12 | 4.44e+06
B13 | 5.25e+06
B14 | 5.35e+06
B15 | 5.28e+06

Target: T3, apical domain of CD71 (Screen 3: …)
Assay: primary ELISA screen, apical domain of CD71

Binder | RLU [RLU]
B10 | 5.45e+06
B11 | 5.9e+06
B12 | 5.41e+06
B13 | 5.42e+06
B14 | 5.31e+06
B15 | 6.62e+06
